US20260250410A1 (SICHUAN HUIYU PHARMACEUTICAL, published 2026)

Experiments:
[1] = biological target: T1, human CDCP1 on tumor cells (human, UniProt Q9H5V8 30-836); assay: flow cytometry, MDA-MB-231 cells
T1 construct: whole, on cells; cell line is named under assay or readout
T1 sequence (looked up): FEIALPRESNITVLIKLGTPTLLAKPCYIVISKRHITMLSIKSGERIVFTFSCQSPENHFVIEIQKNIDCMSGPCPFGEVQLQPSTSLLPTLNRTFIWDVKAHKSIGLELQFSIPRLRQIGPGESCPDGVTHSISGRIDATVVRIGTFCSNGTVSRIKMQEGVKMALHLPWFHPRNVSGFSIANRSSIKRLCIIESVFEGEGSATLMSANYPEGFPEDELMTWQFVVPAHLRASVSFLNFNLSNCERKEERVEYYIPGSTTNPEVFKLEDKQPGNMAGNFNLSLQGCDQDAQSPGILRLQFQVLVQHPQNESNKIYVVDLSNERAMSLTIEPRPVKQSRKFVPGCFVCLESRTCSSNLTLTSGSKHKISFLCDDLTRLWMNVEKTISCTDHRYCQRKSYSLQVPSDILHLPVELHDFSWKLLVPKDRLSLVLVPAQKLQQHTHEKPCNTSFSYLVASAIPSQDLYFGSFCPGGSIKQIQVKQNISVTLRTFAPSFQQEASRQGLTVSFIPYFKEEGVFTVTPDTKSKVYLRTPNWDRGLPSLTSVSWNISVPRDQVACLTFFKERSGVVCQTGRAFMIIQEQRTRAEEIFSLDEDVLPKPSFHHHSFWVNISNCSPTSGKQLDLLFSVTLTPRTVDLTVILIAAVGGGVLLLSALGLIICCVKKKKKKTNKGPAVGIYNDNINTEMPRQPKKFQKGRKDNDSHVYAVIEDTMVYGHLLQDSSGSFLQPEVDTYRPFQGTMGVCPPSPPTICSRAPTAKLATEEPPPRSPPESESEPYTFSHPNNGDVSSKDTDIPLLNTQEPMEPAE
Procedure: Referring to the method of Example 4, MDA-MB-231 cells were taken and subjected to digestion with 5 mM EDTA, 2×10⁴ tumor cells were added respectively per well, and 50 μL (PBS+2% FBS) were added; after blocking at room temperature with Fc blocker for 10 mins, an anti-CDCP1 humanized antibody at a final concentration of 200 nM was added. The obtained mixture was subjected to a 3-fold serial dilution across 8 concentration points, incubated at 4° C. for 30 mins, centrifuged and washed, and then a secondary antibody (PE anti-human IgG Fc Antibody, Biolegend, 410708) was added, then detection was performed using a flow cytometer. Geo-MFI (geometric mean fluorescence signal value) was used as the preliminary signal of antibody-cell binding, curve fitting was performed using graphpad, and the binding capacity of antibody to cells was calculated.

HuCDCP1-C = biological target: T2, HuCDCP1-C (human, UniProt Q9H5V8 30-667); assay: SPR (Caterra), antigen immobilized
T2 construct: range 30-667; expressed in HEK-293T, purified by Fc/his tag; also called human CDCP1-C; full-length extracellular domain of human CDCP1; not shown: Fc or his tag
T2 sequence (looked up): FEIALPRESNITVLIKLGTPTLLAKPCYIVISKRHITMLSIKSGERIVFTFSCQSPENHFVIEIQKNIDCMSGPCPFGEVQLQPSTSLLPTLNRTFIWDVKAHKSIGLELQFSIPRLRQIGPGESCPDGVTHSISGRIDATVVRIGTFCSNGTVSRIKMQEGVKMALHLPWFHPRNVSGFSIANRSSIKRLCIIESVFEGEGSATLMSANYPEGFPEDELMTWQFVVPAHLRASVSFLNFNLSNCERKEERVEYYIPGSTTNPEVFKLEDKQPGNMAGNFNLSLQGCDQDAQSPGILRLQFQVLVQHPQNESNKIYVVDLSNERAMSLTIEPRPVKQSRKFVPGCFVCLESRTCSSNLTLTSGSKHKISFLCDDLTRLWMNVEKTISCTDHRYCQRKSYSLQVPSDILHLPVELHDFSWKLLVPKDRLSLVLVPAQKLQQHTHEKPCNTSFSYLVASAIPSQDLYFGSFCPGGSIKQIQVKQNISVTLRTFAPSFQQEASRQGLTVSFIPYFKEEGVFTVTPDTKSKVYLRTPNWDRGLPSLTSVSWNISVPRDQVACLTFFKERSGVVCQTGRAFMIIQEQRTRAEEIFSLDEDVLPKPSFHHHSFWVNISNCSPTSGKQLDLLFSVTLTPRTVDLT
Procedure: The humanized anti-CDCP1 antibodies obtained from Example 11 were subjected to gene cloning, constructed into pTT5 expression vector for a small amount of expression in CHO cells (Expi-CHOS: Gibco A29127), and purified with an Fc affinity column (AT Protein A Diamond Plus. No. AA402312). Antibody purity was analyzed by HPLC and determined by Nanodrop. High-throughput affinity assay was carried out for a small amount of antibodies by Caterra.

B1: 1CP-125 (antibody, human IgG1, kappa, V domains shown)
VH: QVQLVQSGAEVKKPGASVKVSCKASGYNFISYWLHWVRQAPGQGLEWMGGIYPGNTDTTYNQKFKGRVTMTADTSTSTVYMELSSLRSEDTAVYYCIRYDYDRGMDYWGQGTLVTVSS
VL: DIQMTQSPSSLSASVGDRVTITCRASEDIYYRLAWYQQKPGKAPKLLISGATALETGVPSRFSGSGSGKDYTFTISSLQPEDIATYYCQHYWNIPWTFGQGTKVEIKR
notes: humanized 3C11, human IgG1 kappa
For B1, the EC50 [1] was 0.95 nM, the Kd (HuCDCP1-C) was 0.144 nM and the koff (HuCDCP1-C) was 2.17e-05 s⁻¹. The kon (HuCDCP1-C) was 151000 M⁻¹ s⁻¹.

B2: 1CP-129 (antibody, human IgG1, kappa, V domains shown)
VH: QVQLVQSGAEVKKPGASVKVSCKASGYNFISYWLHWVRQAPGQGLEWMGGIYPGNTDTTYNQKFKGRVTMTADTSTSTVYMELSSLRSEDTAVYYCIRYDYDRGMDYWGQGTLVTVSS
VL: DIQMTQSPSSLSASVGDRVTITCRASEDIYYRLAWYQQKPGKAPKLLISGATALETGVPSRFSGSGSGKDYTLTISSLQPEDIATYYCQHYWNIPWTFGQGTKVEIKR
notes: as for B1
B2 gave an EC50 [1] of 0.34 nM, a Kd (HuCDCP1-C) of no more than 0.0623 nM and a koff (HuCDCP1-C) of no more than 1e-05 s⁻¹. The kon (HuCDCP1-C) was 160000 M⁻¹ s⁻¹.

B3: 1CP-128 (antibody, human IgG1, kappa, V domains shown)
VH: QVQLVQSGAEVKKPGASVKVSCKASGYNFISYWLHWVRQAPGQGLEWMGGIYPGNTDTTYNQKFKGRVTMTRDTSTSTVYMELSSLRSEDTAVYYCIRYDYDRGMDYWGQGTLVTVSS
VL: DIQMTQSPSSLSASVGDRVTITCRASEDIYYRLAWYQQKPGKAPKLLISGATALETGVPSRFSGSGSGKDYTLTISSLQPEDIATYYCQHYWNIPWTFGQGTKVEIKR
notes: as for B1
In the case of B3, the EC50 [1] is reported as 0.32 nM, the Kd (HuCDCP1-C) is reported as no more than 0.0717 nM and the koff (HuCDCP1-C) is reported as no more than 1e-05 s⁻¹. For the same binder, the kon (HuCDCP1-C) was 139000 M⁻¹ s⁻¹.

B4: 1CP-152 (antibody, human IgG1, kappa, V domains shown)
VH: EVQLVESGGGLVQPGRSLRLSCTTSGLTFTHYHMSWVRQAPGKGLEWVAIIRNKAYGYTTDYSASVRGRFTISRDDSKSILYLQMNSLKTEDTAVYYCVREGGYGYDGTFAYWGQGTLVTVSS
VL: DIQMTQSPSSLSASVGDRVTITCRASESVDNYGISFMNWFQQKPGQAPKLLIYAASNQGSGVPSRFSGSGSGTDFTLTISSMQPEDFATYYCQQSKEVPRTFGGGTKVEIKR
notes: humanized 8C9, human IgG1 kappa
For B4, the EC50 [1] was 2.82 nM, the Kd (HuCDCP1-C) was 4.09 nM and the koff (HuCDCP1-C) was 0.000465 s⁻¹. It also gave a kon (HuCDCP1-C) of 114000 M⁻¹ s⁻¹.

B5: 1CP-157 (antibody, human IgG1, kappa, V domains shown)
VH: EVQLVESGGGLVQPGRSLRLSCTTSGLTFTHYHMSWVRQAPGKGPEWVAIIRNKAYGYTTDYSASVRGRFTISRDDSKSILYLQMNSLKTEDTAVYYCVREGGYGYDGTFAYWGQGTLVTVSS
VL: DIQMTQSPSSLSASVGDRVTITCRASESVDNYGISFMNWFQQKPGQPPKLLIYAASNQGSGVPSRFSGSGSGTDFTLTISSMQPEDFATYYCQQSKEVPRTFGGGTKVEIKR
notes: as for B4
In the case of B5, the EC50 [1] is reported as 2.5 nM, the Kd (HuCDCP1-C) is reported as 3.14 nM and the koff (HuCDCP1-C) is reported as 0.000385 s⁻¹. It also gave a kon (HuCDCP1-C) of 122000 M⁻¹ s⁻¹.
